The target of assay [1] is T1, Recombinant Human IL-13 (human, UniProt P35225 35-146, limits assumed). The assay is described as follows: cell-based or functional assay.
The target in assay [2] is T2, Recombinant Human IL-17 (human, UniProt Q16552 20-155, limits assumed).
T2 sequence (looked up): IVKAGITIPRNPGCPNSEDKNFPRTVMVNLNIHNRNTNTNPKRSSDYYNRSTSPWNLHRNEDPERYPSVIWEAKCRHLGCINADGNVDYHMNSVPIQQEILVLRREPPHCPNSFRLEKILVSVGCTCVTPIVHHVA
The assay is described as follows: cell-based or functional assay.

Assay [3] deals with T1, Recombinant Human IL-13. The assay is described as follows: SPR (Biacore). In a few lines: (§1)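 Antibodies or DVD-Ig captured on anti-mouse IgG (Fcγ) CM5 surface; antigen injected at 10–200 nM in HBS-EP, pH 7.4, 25 °C, 25 µL/min. kon and koff from global 1:1 Langmuir fit; KD = koff/kon.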
The target in assay [4] is T2, Recombinant Human IL-17. The assay is described as follows: SPR (Biacore). In a few lines:
as §1

Where a chain is given by its changes, count along the chain named. A value given as a limit tells only on which side of the number the result lay.

T1 sequence (P35225 35-146 limits assumed): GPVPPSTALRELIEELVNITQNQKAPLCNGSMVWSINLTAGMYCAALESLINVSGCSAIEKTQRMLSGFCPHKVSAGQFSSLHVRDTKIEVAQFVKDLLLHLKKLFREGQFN

B1: DVD2174 (bispecific antibody)
VH: EVQLVQSGAEVKKPGASVKVSCKASGYTFTTYGVSWVRQAPGQGLEWMGEIYPGNYNTYYNEKFRGRVTMTTDTSTSTAYMELRSLRSDDTAVYYCARWRTSYFSDYGYFDYWGQGTTVTVSSASTKGPEVQLVQSGAEVKKPGSSVKVSCKASGGSFGGYGIGWVRQAPGQGLEWMGGITPFFGFADYAQKFQGRVTITADESTTTAYMELSGLTSDDTAVYYCARDPNEFWNGYYSTHDFDSWGQGTTVTVSS
VL: DVVMTQSPLSLPVTLGQPASISCRSSQSLVHSHGNTYLHWYQQRPGQSPRLLIYTVSNRFSGVPDRFSGSGSGTDFTLKISRVEAEDVGVYYCSQSTHVPYTFGGGTKVEIKRTVAAPSVFIFPPEIVLTQSPDFQSVTPKEKVTITCRASQDIGSELHWYQQKPDQPPKLLIKYASHSTSGVPSRFSGSGSGTDFTLTINGLEAEDAGTYYCHQTDSLPYTFGPGTKVDIKR
notes: DVD-Ig; also called DVD2174H; DVD2174L
Take B1: the “N-Terminal VD IL13 Neutralization Assay IC50” value in assay [1] worked out at 0.085 nM. For the same molecule, in assay [2], the “C-Terminal VD IL17 Neutralization Assay IC50” value was found to be 0.0126 nM. Also, in assay [3], the dissociation constant (Kd) turned out to be 0.036 nM, the koff is 2.8e-05 s⁻¹ and the association rate constant (kon) is 790000 M⁻¹ s⁻¹. Besides, in assay [4], the Kd came out at 0.098 nM, the dissociation rate constant (koff) was found to be 1.8e-05 s⁻¹ and the kon was 180000 M⁻¹ s⁻¹.

B2: DVD2185 (bispecific antibody)
VH: EVQLVQSGAEVKKPGSSVKVSCKASGYTFTDYEIHWVRQAPGQGLEWMGVNDPESGGTFYNQKFDGRVTLTADESTSTAYMELSSLRSEDTAVYYCTRYSKWDSFDGMDYWGQGTTVTVSSASTKGPEVQLVQSGAEVKKPGASVKVSCKASGYTFTSYWMHWVRQAPGQGLEWIGNINPKGGSNIYNEKFQGRVTMTRDTSISTAYMELSRLRSDDTAVYYCARLDYFGDSFDLWGQGTTVTVSS
VL: DIQMTQSPSSLSASVGDRVTITCRASSGIISYIDWFQQKPGKAPKRLIYATFDLASGVPSRFSGSGSGTDYTLTISSLQPEDFATYYCRQVGSYPETFGQGTKLEIKRTVAAPDIQMTQSPSSLSASVGDRVTITCRASQGIRNYLNWYQQKPGKAPKLLIYYASNLEVGVPSRFSGSGSGTDYTLTISSLQPEDFATYYCQQDNRFPYTFGGGTKVEIKR
notes: DVD-Ig; also called DVD2185H; DVD2185L
As for B2, in assay [1], the “C-Terminal VD IL13 Neutralization Assay IC50” value amounted to 1.25 nM. Besides, the “N-Terminal VD IL17 Neutralization Assay IC50” value in assay [2] amounted to 0.0013 nM. For the same molecule, in assay [3], the Kd was below 0.0091 nM, the koff was below 1e-06 s⁻¹ and the kon stood at 110000 M⁻¹ s⁻¹. In assay [4], the dissociation constant Kd was found to be 0.0089 nM, the dissociation rate constant (koff) is 1.5e-05 s⁻¹ and the kon was determined as 1.7e+06 M⁻¹ s⁻¹.

B3: DVD2189 (bispecific antibody)
VH: EVQLVQSGAEVKKPGSSVKVSCKASGYTFTDYEIHWVRQAPGQGLEWMGVNDPESGGTFYNQKFDGRVTLTADESTSTAYMELSSLRSEDTAVYYCTRYSKWDSFDGMDYWGQGTTVTVSSASTKGPSVFPLAPEVQLVQSGAEVKKPGASVKVSCKASGYTFTSYWMHWVRQAPGQGLEWIGNINPKGGSNIYNEKFQGRVTMTRDTSISTAYMELSRLRSDDTAVYYCARLDYFGDSFDLWGQGTTVTVSS
VL: B2 VL
notes: DVD-Ig; also called DVD2189H; DVD2189L
With B3, the “C-Terminal VD IL13 Neutralization Assay IC50” value in assay [1] was found to be 0.172 nM. Moreover, the “N-Terminal VD IL17 Neutralization Assay IC50” value in assay [2] was found to be 0.0017 nM. For the same molecule, in assay [3], the Kd stood at 0.094 nM, the koff turned out to be 3.9e-05 s⁻¹ and the kon stood at 410000 M⁻¹ s⁻¹. Besides, in assay [4], the Kd was below 0.0004 nM, the koff is below 1e-06 s⁻¹ and the on-rate (kon) was determined as 2.5e+06 M⁻¹ s⁻¹.

B4: DVD2187 (bispecific antibody)
VH: B2 VH
VL: DIQMTQSPSSLSASVGDRVTITCRASSGIISYIDWFQQKPGKAPKRLIYATFDLASGVPSRFSGSGSGTDYTLTISSLQPEDFATYYCRQVGSYPETFGQGTKLEIKRTVAAPSVFIFPPDIQMTQSPSSLSASVGDRVTITCRASQGIRNYLNWYQQKPGKAPKLLIYYASNLEVGVPSRFSGSGSGTDYTLTISSLQPEDFATYYCQQDNRFPYTFGGGTKVEIKR
notes: DVD-Ig; also called DVD2187H; DVD2187L
Consider B4, for which the “C-Terminal VD IL13 Neutralization Assay IC50” value in assay [1] was found to be 0.811 nM. Further, the “N-Terminal VD IL17 Neutralization Assay IC50” value in assay [2] was 0.0016 nM. Moreover, in assay [3], the equilibrium dissociation constant (Kd) was 0.072 nM, the koff was found to be 2.1e-05 s⁻¹ and the on-rate constant (kon) was determined as 290000 M⁻¹ s⁻¹. Moreover, in assay [4], the Kd was below 0.00038 nM, the koff is below 1e-06 s⁻¹ and the kon was 2.6e+06 M⁻¹ s⁻¹.

B5: DVD2177 (bispecific antibody)
VH: EVQLVQSGAEVKKPGSSVKVSCKASGGSFGGYGIGWVRQAPGQGLEWMGGITPFFGFADYAQKFQGRVTITADESTTTAYMELSGLTSDDTAVYYCARDPNEFWNGYYSTHDFDSWGQGTTVTVSSASTKGPSVFPLAPEVQLVQSGAEVKKPGASVKVSCKASGYTFTTYGVSWVRQAPGQGLEWMGEIYPGNYNTYYNEKFRGRVTMTTDTSTSTAYMELRSLRSDDTAVYYCARWRTSYFSDYGYFDYWGQGTTVTVSS
VL: EIVLTQSPDFQSVTPKEKVTITCRASQDIGSELHWYQQKPDQPPKLLIKYASHSTSGVPSRFSGSGSGTDFTLTINGLEAEDAGTYYCHQTDSLPYTFGPGTKVDIKRTVAAPDVVMTQSPLSLPVTLGQPASISCRSSQSLVHSHGNTYLHWYQQRPGQSPRLLIYTVSNRFSGVPDRFSGSGSGTDFTLKISRVEAEDVGVYYCSQSTHVPYTFGGGTKVEIKR
notes: DVD-Ig; also called DVD2177H; DVD2177L
For B5, in assay [1], the “C-Terminal VD IL13 Neutralization Assay IC50” value was 0.155 nM. Besides, the “N-Terminal VD IL17 Neutralization Assay IC50” value in assay [2] was found to be 0.0101 nM. Also, in assay [3], the Kd is below 0.0091 nM, the off-rate constant (koff) was below 1e-06 s⁻¹ and the on-rate (kon) was 110000 M⁻¹ s⁻¹. For the same molecule, in assay [4], the Kd is at most 0.0043 nM, the koff was at most 1e-05 s⁻¹ and the on-rate (kon) is 2.5e+06 M⁻¹ s⁻¹.

B6: DVD2183 (bispecific antibody)
VH: EVQLVQSGAEVKKPGESVKISCKASGGSFRSYGISWVRQAPGQGLEWMGGITHFFGITDYAQKFQGRVTITADESTTTAYMELSGLTSDDTAVYYCAREPNDFWNGYYDTHDFDSWGQGTTVTVSSASTKGPSVFPLAPEVQLVQSGAEVKKPGASVKVSCKASGYTFTTYGVSWVRQAPGQGLEWMGEIYPGNYNTYYNEKFRGRVTMTTDTSTSTAYMELRSLRSDDTAVYYCARWRTSYFSDYGYFDYWGQGTTVTVSS
VL: B5 VL with D28N, P43S, T55I, G84A, T91S, S93T, Y96H, P100Q
notes: DVD-Ig; also called DVD2183H; DVD2183L
With B6, the “C-Terminal VD IL13 Neutralization Assay IC50” value in assay [1] is 0.086 nM. For the same molecule, in assay [2], the “N-Terminal VD IL17 Neutralization Assay IC50” value was determined as 0.0125 nM. Also, in assay [3], the dissociation constant Kd is below 0.0042 nM, the dissociation rate constant (koff) was below 1e-06 s⁻¹ and the kon came out at 240000 M⁻¹ s⁻¹. Further, in assay [4], the Kd is 0.015 nM, the koff stood at 3.6e-05 s⁻¹ and the kon was 2.3e+06 M⁻¹ s⁻¹.

B7: DVD2179 (bispecific antibody)
VH: EVQLVQSGAEVKKPGESVKISCKASGGSFRSYGISWVRQAPGQGLEWMGGITHFFGITDYAQKFQGRVTITADESTTTAYMELSGLTSDDTAVYYCAREPNDFWNGYYDTHDFDSWGQGTTVTVSSASTKGPEVQLVQSGAEVKKPGASVKVSCKASGYTFTTYGVSWVRQAPGQGLEWMGEIYPGNYNTYYNEKFRGRVTMTTDTSTSTAYMELRSLRSDDTAVYYCARWRTSYFSDYGYFDYWGQGTTVTVSS
VL: B5 VL with D28N, P43S, T55I, G84A, T91S, S93T, Y96H, P100Q
notes: DVD-Ig; also called DVD2179H; DVD2179L
As to B7, the “C-Terminal VD IL13 Neutralization Assay IC50” value in assay [1] amounted to 0.916 nM. Also, the “N-Terminal VD IL17 Neutralization Assay IC50” value in assay [2] is 0.0097 nM. In addition, in assay [3], the dissociation constant (Kd) is at most 0.0036 nM, the koff was at most 1e-06 s⁻¹ and the kon came to 280000 M⁻¹ s⁻¹. Besides, in assay [4], the dissociation constant (Kd) was determined as 0.039 nM, the koff was determined as 6.4e-05 s⁻¹ and the kon turned out to be 1.7e+06 M⁻¹ s⁻¹.

B8: DVD2175 (bispecific antibody)
VH: EVQLVQSGAEVKKPGSSVKVSCKASGGSFGGYGIGWVRQAPGQGLEWMGGITPFFGFADYAQKFQGRVTITADESTTTAYMELSGLTSDDTAVYYCARDPNEFWNGYYSTHDFDSWGQGTTVTVSSASTKGPEVQLVQSGAEVKKPGASVKVSCKASGYTFTTYGVSWVRQAPGQGLEWMGEIYPGNYNTYYNEKFRGRVTMTTDTSTSTAYMELRSLRSDDTAVYYCARWRTSYFSDYGYFDYWGQGTTVTVSS
VL: EIVLTQSPDFQSVTPKEKVTITCRASQDIGSELHWYQQKPDQPPKLLIKYASHSTSGVPSRFSGSGSGTDFTLTINGLEAEDAGTYYCHQTDSLPYTFGPGTKVDIKRTVAAPSVFIFPPDVVMTQSPLSLPVTLGQPASISCRSSQSLVHSHGNTYLHWYQQRPGQSPRLLIYTVSNRFSGVPDRFSGSGSGTDFTLKISRVEAEDVGVYYCSQSTHVPYTFGGGTKVEIKR
notes: DVD-Ig; also called DVD2175H; DVD2175L
Consider B8, for which the “C-Terminal VD IL13 Neutralization Assay IC50” value in assay [1] amounted to 0.115 nM. For the same molecule, the “N-Terminal VD IL17 Neutralization Assay IC50” value in assay [2] was 0.0089 nM. Moreover, in assay [3], the Kd is below 0.019 nM, the off-rate (koff) was below 1e-06 s⁻¹ and the kon stood at 52000 M⁻¹ s⁻¹. In addition, in assay [4], the Kd was determined as 0.0021 nM, the koff came out at 5.4e-06 s⁻¹ and the on-rate constant (kon) amounted to 2.7e+06 M⁻¹ s⁻¹.

B9: DVD2181 (bispecific antibody)
VH: B7 VH
VL: B8 VL with D28N, P43S, T55I, G84A, T91S, S93T, Y96H, P100Q
notes: DVD-Ig; also called DVD2181H; DVD2181L
Consider B9, for which the “C-Terminal VD IL13 Neutralization Assay IC50” value in assay [1] came to 0.04 nM. In assay [2], the “N-Terminal VD IL17 Neutralization Assay IC50” value amounted to 0.0097 nM. In assay [3], the Kd was below 0.012 nM, the dissociation rate constant (koff) was below 1e-06 s⁻¹ and the kon is 82000 M⁻¹ s⁻¹. In addition, in assay [4], the dissociation constant (Kd) was found to be 0.016 nM, the off-rate constant (koff) stood at 4.2e-05 s⁻¹ and the on-rate constant (kon) is 2.6e+06 M⁻¹ s⁻¹.

The record behind these values is patent publication US20130236458A1 (AbbVie / Abbott, published 2013).
